Reference: patent US20260242478A1 (published 2026)
Where no end group is shown, it is not given here.

How the values were obtained:
[1] = target: T1, Anti-CD28 Fab (SEQ ID NOs: 696, 697); assay: phage ELISA; biotinylated anti-CD28 Fab on neutravidin plates, bound phage detected with anti-M13-HRP
T1 construct: In the phage ELISA the Fab was biotinylated and captured on neutravidin coated plates
T1 sequence (VH, as listed by the source, chain 1 of 2): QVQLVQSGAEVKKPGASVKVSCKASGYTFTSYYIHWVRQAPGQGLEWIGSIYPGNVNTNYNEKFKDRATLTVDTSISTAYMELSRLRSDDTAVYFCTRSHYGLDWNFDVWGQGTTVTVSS
T1 sequence (VL, as listed by the source, chain 2 of 2): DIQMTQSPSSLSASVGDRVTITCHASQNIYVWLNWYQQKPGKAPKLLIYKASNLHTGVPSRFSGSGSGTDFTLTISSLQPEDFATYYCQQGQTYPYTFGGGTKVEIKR
Protocol: (§1) After panning, phage infected bacteria were plated out and colonies picked into 96 well blocks. Clonal phage was then amplified and separated from bacterial cells via centrifugation.
(§2) Clonal phage were harvested as crude supematants and screened via standard ELISAs. […] Prior to the addition of clonal phage, wells were incubated with blocking buffer and CD28 antigen or blocking buffer alone. Without washing or aspirating, clonal phage supematants were then added to the wells and incubated for a short time. Wells were then washed followed by detection of bound phage using a horse radish conjugated anti-M13 antibody. Clonal phage of interest were then sent for sequence analysis.

[2] = target: T1, Anti-CD28 Fab (SEQ ID NOs: 696, 697); assay: phage ELISA; Fab-coated wells pre-incubated with CD28 antigen as competitor, anti-M13-HRP detection
Protocol: as §1, §2

[3] = target: T2, Anti-CD28 Fab (SEQ ID NOs: 696, 697); assay: phage binding ELISA; biotinylated anti-CD28 Fab on neutravidin plate, clonal phage supernatant, anti-M13 HRP detection
T2 construct: In the phage ELISA the Fab was biotinylated and captured on neutravidin coated plates
T2 sequence (VH, as listed by the source, chain 1 of 2): as the sequence (VH, as listed by the source, chain 1 of 2) above
T2 sequence (VL, as listed by the source, chain 2 of 2): as the sequence (VL, as listed by the source, chain 2 of 2) above
Protocol: as §1, §2

[4] = target: T2, Anti-CD28 Fab (SEQ ID NOs: 696, 697); assay: phage binding ELISA; Fab-coated wells pre-incubated with CD28 antigen as competitor, anti-M13 HRP detection;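 also: crude clonal phage supernatants from panned colonies added to wells after blocking buffer plus CD28 treatment, bound phage measured after a brief incubation and washing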
Protocol: as §1, §2

[5] = target: T3, Anti-CD28 Fab (SEQ ID NOs: 696, 697); assay: phage binding ELISA; biotinylated anti-CD28 Fab on neutravidin plate, clonal phage detected with anti-M13 HRP
T3 construct: In the phage ELISA the Fab was biotinylated and captured on neutravidin coated plates
T3 sequence (VH, as listed by the source, chain 1 of 2): as the sequence (VH, as listed by the source, chain 1 of 2) above
T3 sequence (VL, as listed by the source, chain 2 of 2): as the sequence (VL, as listed by the source, chain 2 of 2) above
Protocol: as §1, §2

[6] = target: T3, Anti-CD28 Fab (SEQ ID NOs: 696, 697); assay: phage binding ELISA; Fab-coated wells pre-incubated with CD28 antigen as competitor, phage detected with anti-M13 HRP
Protocol: as §1, §2

## YCDGHLGIYMTKCL (Tested as clonal phage supernatant) [Phage-718]
[1]
  Phage binding ELISA, Anti-CD28 Fab signal: 1.98
[2]
  Phage binding ELISA, Anti-CD28 Fab signal in the presence of CD28: 0.08

## YCDGHLWEYMDKCL (Tested as clonal phage supernatant) [Phage-719]
[1]
  Phage binding ELISA, Anti-CD28 Fab signal: 1.97
[2]
  Phage binding ELISA, Anti-CD28 Fab signal in the presence of CD28: 0.06

## YCEGHLPMYFLKCM (Tested as clonal phage supernatant) [Phage-720]
[1]
  Phage binding ELISA, Anti-CD28 Fab signal: 1.97
[2]
  Phage binding ELISA, Anti-CD28 Fab signal in the presence of CD28: 0.06

## YCDGHLPIYMTQCL (Tested as clonal phage supernatant) [Phage-721]
[1]
  Phage binding ELISA, Anti-CD28 Fab signal: 1.97
[2]
  Phage binding ELISA, Anti-CD28 Fab signal in the presence of CD28: 0.08

## YCEGHLAEYMDKCL (Tested as clonal phage supernatant) [Phage-722]
[1]
  Phage binding ELISA, Anti-CD28 Fab signal: 1.96
[2]
  Phage binding ELISA, Anti-CD28 Fab signal in the presence of CD28: 0.07

B1: Phage-983 (peptide)
peptide: YCDGHLPMYMKKCL
modifications: cysteine pairing not given here; also: displayed fused to phage pIII protein, fusion end and linker not given here
notes: Clonal phage of the peptide-87 library, tested as crude supernatant; not shown: fused to the pIII filament protein of the bacteriophage
[3]
  Anti-CD28 Fab signal (phage binding ELISA): 1.57
[4]
  Anti-CD28 Fab signal in the presence of CD28: 0.1

B2: Phage-984 (peptide)
peptide: YCQGHLPQYVEKCL
modifications: cysteine pairing not given here; also: displayed fused to phage pIII protein, fusion end and linker not given here
notes: as for B1
[3]
  Anti-CD28 Fab signal (phage binding ELISA): 1.57
[4]
  Anti-CD28 Fab signal in the presence of CD28: 0.08

B3: Phage-985 (peptide)
peptide: YCEGHLDMYVWKCL
modifications: cysteine pairing not given here; also: displayed fused to phage pIII protein, fusion end and linker not given here
notes: as for B1
[3]
  Anti-CD28 Fab signal (phage binding ELISA): 1.56
[4]
  Anti-CD28 Fab signal in the presence of CD28: 0.08

B4: Phage-986 (peptide)
peptide: YCDGHSQEYMAHCL
modifications: cysteine pairing not given here; also: displayed fused to phage pIII protein, fusion end and linker not given here
notes: as for B1
[3]
  Anti-CD28 Fab signal (phage binding ELISA): 1.56
[4]
  Anti-CD28 Fab signal in the presence of CD28: 0.07

B5: Phage-987 (peptide)
peptide: YCDGHSPLYMVKCL
modifications: cysteine pairing not given here; also: displayed fused to phage pIII protein, fusion end and linker not given here
notes: as for B1
[3]
  Anti-CD28 Fab signal (phage binding ELISA): 1.56
[4]
  Anti-CD28 Fab signal in the presence of CD28: 0.06

B6: Phage-988 (peptide)
peptide: YCDGHFLTYMTKCL
modifications: cysteine pairing not given here; also: displayed fused to phage pIII protein, fusion end and linker not given here
notes: as for B1
[3]
  Anti-CD28 Fab signal (phage binding ELISA): 1.56
[4]
  Anti-CD28 Fab signal in the presence of CD28: 0.07

B7: Phage-989 (peptide)
peptide: YCAGHSEEYMDKCL
modifications: cysteine pairing not given here; also: displayed fused to phage pIII protein, fusion end and linker not given here
notes: as for B1
[3]
  Anti-CD28 Fab signal (phage binding ELISA): 1.55
[4]
  Anti-CD28 Fab signal in the presence of CD28: 0.05

B8: Phage-990 (peptide)
peptide: YCDGHSEVYMSKCL
modifications: cysteine pairing not given here; also: displayed fused to phage pIII protein, fusion end and linker not given here
notes: as for B1
[3]
  Anti-CD28 Fab signal (phage binding ELISA): 1.55
[4]
  Anti-CD28 Fab signal in the presence of CD28: 0.06

B9: Phage-991 (peptide)
peptide: YCEGHTLEYMWKCL
modifications: cysteine pairing not given here; also: displayed fused to phage pIII protein, fusion end and linker not given here
notes: as for B1
[3]
  Anti-CD28 Fab signal (phage binding ELISA): 1.55
[4]
  Anti-CD28 Fab signal in the presence of CD28: 0.33

B10: Phage-992 (peptide)
peptide: YCDGHSQAHMQKCL
modifications: cysteine pairing not given here; also: displayed fused to phage pIII protein, fusion end and linker not given here
notes: as for B1
[3]
  Anti-CD28 Fab signal (phage binding ELISA): 1.55
[4]
  Anti-CD28 Fab signal in the presence of CD28: 0.08

B11: Phage-993 (peptide)
peptide: YCAGHDQQYMEKCL
modifications: cysteine pairing not given here; also: displayed fused to phage pIII protein, fusion end and linker not given here
notes: as for B1
[3]
  Anti-CD28 Fab signal (phage binding ELISA): 1.55
[4]
  Anti-CD28 Fab signal in the presence of CD28: 0.23

B12: Phage-994 (peptide)
peptide: YCDGHLPVYMMKCL
modifications: cysteine pairing not given here; also: displayed fused to phage pIII protein, fusion end and linker not given here
notes: as for B1
[3]
  Anti-CD28 Fab signal (phage binding ELISA): 1.55
[4]
  Anti-CD28 Fab signal in the presence of CD28: 0.07

B13: Phage-995 (peptide)
peptide: YCAGHNAQYMSKCL
modifications: cysteine pairing not given here; also: displayed fused to phage pIII protein, fusion end and linker not given here
notes: as for B1
[3]
  Anti-CD28 Fab signal (phage binding ELISA): 1.55
[4]
  Anti-CD28 Fab signal in the presence of CD28: 0.05

B14: Phage-996 (peptide)
peptide: YCDGHTSEYMTKCL
modifications: cysteine pairing not given here; also: displayed fused to phage pIII protein, fusion end and linker not given here
notes: as for B1
[3]
  Anti-CD28 Fab signal (phage binding ELISA): 1.54
[4]
  Anti-CD28 Fab signal in the presence of CD28: 0.06

B15: Phage-1075 (peptide)
peptide: YCDGHAPEYIQKCL
modifications: cysteine pairing not given here; also: displayed as fusion to phage pIII, linker not given here
[5]
  Anti-CD28 Fab signal (phage binding ELISA): 1.38
[6]
  Anti-CD28 Fab signal in the presence of CD28 (phage binding ELISA): 0.06

B16: Phage-1076 (peptide)
peptide: YCEGHLDEYLQKCL
modifications: cysteine pairing not given here; also: displayed as fusion to phage pIII, linker not given here
[5]
  Anti-CD28 Fab signal (phage binding ELISA): 1.38
[6]
  Anti-CD28 Fab signal in the presence of CD28 (phage binding ELISA): 0.07

B17: Phage-1077 (peptide)
peptide: YCDGHLQEYMQKCL
modifications: cysteine pairing not given here; also: displayed as fusion to phage pIII, linker not given here
[5]
  Anti-CD28 Fab signal (phage binding ELISA): 1.38
[6]
  Anti-CD28 Fab signal in the presence of CD28 (phage binding ELISA): 0.06

B18: Phage-1078 (peptide)
peptide: YCDGHQPQYMSKCL
modifications: cysteine pairing not given here; also: displayed as fusion to phage pIII, linker not given here
[5]
  Anti-CD28 Fab signal (phage binding ELISA): 1.38
[6]
  Anti-CD28 Fab signal in the presence of CD28 (phage binding ELISA): 0.09

B19: Phage-1079 (peptide)
peptide: YCDGHLSEYIGKCL
modifications: cysteine pairing not given here; also: displayed as fusion to phage pIII, linker not given here
[5]
  Anti-CD28 Fab signal (phage binding ELISA): 1.37
[6]
  Anti-CD28 Fab signal in the presence of CD28 (phage binding ELISA): 0.06

B20: Phage-1080 (peptide)
peptide: YCEGHSQLYMAKCL
modifications: cysteine pairing not given here; also: displayed as fusion to phage pIII, linker not given here
[5]
  Anti-CD28 Fab signal (phage binding ELISA): 1.37
[6]
  Anti-CD28 Fab signal in the presence of CD28 (phage binding ELISA): 0.07

B21: Phage-1081 (peptide)
peptide: YCDGHSETYLWKCL
modifications: cysteine pairing not given here; also: displayed as fusion to phage pIII, linker not given here
[5]
  Anti-CD28 Fab signal (phage binding ELISA): 1.37
[6]
  Anti-CD28 Fab signal in the presence of CD28 (phage binding ELISA): 0.1

B22: Phage-1082 (peptide)
peptide: YCEGHLPAYMGKCI
modifications: cysteine pairing not given here; also: displayed as fusion to phage pIII, linker not given here
[5]
  Anti-CD28 Fab signal (phage binding ELISA): 1.37
[6]
  Anti-CD28 Fab signal in the presence of CD28 (phage binding ELISA): 0.09

B23: Phage-1083 (peptide)
peptide: YCEGHLPEYMIKCI
modifications: cysteine pairing not given here; also: displayed as fusion to phage pIII, linker not given here
[5]
  Anti-CD28 Fab signal (phage binding ELISA): 1.36
[6]
  Anti-CD28 Fab signal in the presence of CD28 (phage binding ELISA): 0.1
